In patent publication US20250075006A1 (SHANDONG SIMCERE BIOPHARMACEUTICAL, published 2025):
Like-named read-outs stand apart in the source and are kept apart here. Values belong to the binder of their own block, whether it stands above or below them.

Key:
[1] = target: T1, Human GUCY2C ECD (his-tagged human GUCY2C protein extracellular domain fusion protein) (human, UniProt P25092 24-430); assay: SPR Biacore, antibody on Protein A, antigen injected
T1 construct: also called human GUCY2C-his; human GUCY2C-His
Description: The strength of antibody-antigen binding was assayed with a BIAcore 8K instrument using a Protein A capture method. First, Protein A was immobilized onto a CM4 chip (purchased from GE, BR-1005-34) using an amino coupling method. According to the instruction of the Amine Coupling Kit (purchased from GE, BR100633), NHS and EDC were mixed with HBS-EP+pH 7.4 as a mobile phase to activate the chip for about 600 s; the Protein A was diluted to 50 μg/mL with 10 mM sodium acetate (pH 4.5) and injected for 600 s, and finally, the remaining activated sites were blocked with ethanolamine. Then, the affinity of the antibody for the antigen was assayed using a multi-cycle kinetic method; in each cycle, first, the antibody to be tested was captured using the Protein A chip, and then a single concentration of antigen protein was injected. The association and dissociation processes of the antibody with the antigen protein were recorded, and finally, the chip was regenerated using Glycine pH 1.5, wherein the mobile phase was HBS-EP+(10 mM HEPES, 150 mM NaCl, 3 mM EDTA, 0.05% surfactant P20), the flow rate was 30 μL/min, the regeneration time was 30 s, and the assay temperature was 25° C. Finally, according to a 1:1 binding model, the data were analyzed, and the antibody-antigen binding kinetics parameters, including the association rate constant Ka, the dissociation rate constant Kd, the equilibrium dissociation constant KD, and the maximum binding signal Rmax, were fitted.
After the finally obtained various humanized antibodies were expressed and purified, the affinities of the humanized antibodies for the human and monkey GUCY2C proteins were separately assayed according to the method in Example 4.6.

[2] = target: T2, Cyno GUCY2C ECD (his-tagged cynomolgus monkey GUCY2C protein extracellular domain fusion protein) (cynomolgus monkey, UniProt P25092 24-430 (human entry)); assay: ELISA, plate coated with monkey GUCY2C-his, OD450
T2 construct: also called monkey GUCY2C-his; monkey GUCY2C-His
T2 chain: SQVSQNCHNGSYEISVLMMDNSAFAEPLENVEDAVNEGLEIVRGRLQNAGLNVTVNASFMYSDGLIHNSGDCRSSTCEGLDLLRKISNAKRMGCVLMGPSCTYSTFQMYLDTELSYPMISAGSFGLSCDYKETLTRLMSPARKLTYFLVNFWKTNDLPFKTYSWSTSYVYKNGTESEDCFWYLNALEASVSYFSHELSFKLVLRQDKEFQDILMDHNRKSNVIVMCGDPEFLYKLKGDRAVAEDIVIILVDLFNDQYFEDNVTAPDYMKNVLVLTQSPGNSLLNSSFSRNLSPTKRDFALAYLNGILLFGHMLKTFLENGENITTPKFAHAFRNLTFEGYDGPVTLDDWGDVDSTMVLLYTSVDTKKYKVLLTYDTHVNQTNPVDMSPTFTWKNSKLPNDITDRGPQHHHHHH

[3] = target: T1, Human GUCY2C ECD (his-tagged human …); assay: ELISA, plate coated with human GUCY2C-his, OD450
Description: (§1) To assay the binding activity of the humanized antibodies to human GUCY2C-his protein, a human GUCY2C-his protein was diluted with PBS to a final concentration of 2 μg/mL and then added to a 96-well ELISA plate at 50 μL/well. The plate was sealed with a plastic film and incubated at 4° C. overnight. The next day, the plate was washed 2 times with PBST, and a blocking buffer [PBS+2% (w/w) BSA] was added for blocking at room temperature for 2 h. The blocking buffer was discarded, and the plate was washed 2 times with PBST. An antibody to be tested or a control antibody diluted in a 1:3 gradient from a starting concentration of 100 nM was added at 50 μL/well. After incubation at 37° C. for 1 h, the plate was washed 3 times with PBST. A horseradish peroxidase (HRP)—labeled secondary antibody (purchased from Merck, Cat. No. AP113P) was added for incubation at 37° C. for 1 h, and the plate was washed 5 times with PBST. A TMB substrate was added at 50 µL/well for incubation at room temperature for 5-10 min, and then a stop solution (1.0 M HCl) was added at 50 μL/well. OD450 nm values were read using an ELISA plate reader (Multimode Plate Reader, EnSight, purchased from Perkin Elmer).

[4] = target: T2, Cyno GUCY2C ECD (his-tagged cynomolgus …); assay: ELISA, plate coated with monkey GUCY2C-his, OD450
Description: A human GUCY2C-his protein was diluted with PBS to a final concentration of 2 μg/mL and then added to a 96-well ELISA plate at 50 μL/well. The plate was sealed with a plastic film and incubated at 4° C. overnight. The next day, the plate was washed 2 times with PBST, and a blocking buffer [PBS+2% (w/w) BSA] was added for blocking at room temperature for 2 h. The blocking buffer was discarded, and the recombinant antibody and positive and negative control antibody with a starting concentration of 100 nM serially diluted by 3 folds were added at 50 μL/well. After incubation at 37° C. for 1 h, the plate was washed 3 times with PBST. A horseradish peroxidase (HRP)—labeled secondary antibody (purchased from Merck, Cat. No. AP113P) was added for incubation at 37° C. for 1 h, and the plate was washed 5 times with PBST. A TMB substrate was added at 50 μL/well for incubation at room temperature for 10 min, and then a stop solution (1.0 M HCl) was added at 50 μL/well. The OD450 nm values were read by an ELISA plate reader (Multimode Plate Reader, EnSight, purchased from Perkin Elmer).
The monkey GUCY2C-his and murine GUCY2C-his proteins were subjected to ELISA and data analysis according to the method described in Example 4.2. The recombinant antibodies Lab306-huFc, Lab322-huFc, and Lab323-huFc have a relatively good binding activity with the monkey GUCY2C-his protein. […]

[5] = target: T1, Human GUCY2C ECD (his-tagged human …); assay: ELISA, plate coated with human GUCY2C-his, OD450; remark: listed apart in the source
Description: as §1

[6] = target: T2, Cyno GUCY2C ECD (his-tagged cynomolgus …); assay: ELISA, plate coated with monkey GUCY2C-his, OD450

T1 sequence (P25092 other isoform, or with tags, fused parts or gaps): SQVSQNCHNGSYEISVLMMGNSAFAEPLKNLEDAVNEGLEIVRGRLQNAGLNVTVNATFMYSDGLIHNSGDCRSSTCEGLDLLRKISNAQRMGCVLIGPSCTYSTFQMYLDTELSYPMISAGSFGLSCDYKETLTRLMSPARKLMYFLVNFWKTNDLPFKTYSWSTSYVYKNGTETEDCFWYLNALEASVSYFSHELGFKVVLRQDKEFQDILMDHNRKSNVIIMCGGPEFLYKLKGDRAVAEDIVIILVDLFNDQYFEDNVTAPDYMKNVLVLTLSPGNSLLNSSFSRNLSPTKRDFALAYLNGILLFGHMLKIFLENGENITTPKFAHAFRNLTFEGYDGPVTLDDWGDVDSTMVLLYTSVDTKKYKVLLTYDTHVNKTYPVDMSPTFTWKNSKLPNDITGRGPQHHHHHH

Kd [1]: 4.05 nM | koff [1]: 0.000565 s⁻¹ | kon [1]: 140000 M⁻¹ s⁻¹ | EC50 (read off the curve) [2]: ~0.03 nM | EC50 (read off the curve) [3]: ~0.04 nM | EC50 (read off the curve) [4]: ~0.08 nM | EC50 (read off the curve) [5]: ~0.04 nM | EC50 (read off the curve) [6]: ~0.03 nM
B1: 5F9-hIgG1 (antibody, V domains shown)
VH: QVQLQQWGAGLLKPSETLSLTCAVFGGSFSGYYWSWIRQPPGKGLEWIGEINHRGNTNDNPSLKSRVTISVDTSKNQFALKLSSVTAADTAVYYCARERGYTYGNFDHWGQGTLVTVSS
VL: EIVMTQSPATLSVSPGERATLSCRASQSVSRNLAWYQQKPGQAPRLLIYGASTRATGIPARFSGSGSGTEFTLTIGSLQSEDFAVYYCQQYKTWPRTFGQGTNVEIKR
notes: also called positive control antibody

Kd [1]: 1.63 nM | koff [1]: 0.000258 s⁻¹ | kon [1]: 158000 M⁻¹ s⁻¹ | EC50 (read off the curve) [2]: ~0.05 nM | EC50 (read off the curve) [3]: ~0.05 nM | EC50 (read off the curve) [4]: ~0.08 nM | EC50 (read off the curve) [5]: ~0.05 nM | EC50 (read off the curve) [6]: ~0.05 nM
B2: PF1608-hIgG1 (antibody, V domains shown)
VH: EVQLVESGGGLVQPGGSLRLSCAASGFTFSSYWMHWVRQAPGKGLEWIGEIKPSNELTNVHEKFKDRFTISVDKAKNSAYLQMNSLRAEDTAVYYCTRTITTTEGYWFFDVWGQGTLVTVSS
VL: DIQLTQSPSSLSASVGDRVTITCRASESVDYYGSSLLQWYQQKPGKAPKLLIYAASKLASGVPSRFSGSGSGTDFTLTISSLQPEDFATYYCQQTRKAYTFGQGTKLEIKR
notes: also called PF1608-hlgG1; positive control antibody
